In patent publication US12551573B2, “Compositions and methods for the targeting of PCSK9” (Scribe Therapeutics Inc., priority 2022, dated 2026):

B1: DOMAIN_9960 (protein, listed as Octodon degus)
chain: AVTMEDVTVTFTNEEWALLNPAQKRLYGDVMWETFRTISAIGRTWDSQQMEEEYKNYLRNLSNEEVAKCCRYTTFNQHENI
B2: DOMAIN_10277 (protein, listed as Dipodomys ordii)
chain: SNKLVSFDDVAVEFSWEEWQELDISQRTLYRDVMLETYSMLVSLGHTGPKPQLIVKLEQDEESYMREASDKNFSDVQKMKH
B3: DOMAIN_8746 (protein, listed as Mesocricetus auratus)
chain: SQGLVTFGDVAVVFSQEEWEWLSSEQRSLYWRVMLDNYRNLASLGLCASKPDMIALLEQGKDPCVLKRKTARGLRPDLEAV
B4: DOMAIN_8545 (protein, listed as Rattus norvegicus)
chain: APLPLTFEDVAIYFSEQEWQHLETWQKELYKQVMRTNYETLISLDNGLPKPELISWMELGRENFGSWGEGQKVDRGIRCSV
B5: DOMAIN_8425 (protein, listed as Peromyscus maniculatus)
chain: HKKSMVFSDVSLDFSQEEWECLGPAQKDLYRDVMLENYSHLLSVAGLHIPKPQVISLLEQGKEPWMIGKELTRGLCSALES
B6: DOMAIN_9559 (protein, listed as Mus caroli)
chain: MGLVSFEDIAVYFNLEEWQDLDTAQRTLYRDVMLETYSSLVFLDPCIAKPKLIFNLERGFGPWSLAEASSRSLPGVHNVST
B7: DOMAIN_9303 (protein)
chain: FKGPVTFKDVTVEFTKEEWKLLTPAQRTLYKDVMLENYNHLVSVGYRVSKPNLVFKLKQGKEPWVLEVEFPRRRCPEELWN
modifications: Marmota monax
B8: DOMAIN_9332 (protein, listed as Peromyscus maniculatus)
chain: TENAVTYDDVHVGFTWEEWALLDPSQKNLYKDVMLDTYRNLTTIGYSWEGHNIEEHFQSSRRHERHKRSDTGENSSVYTQC
B9: DOMAIN_9541 (protein, listed as Dipodomys ordii)
chain: SQGLVTFEDVAVYFSLEEWERLNVEQRALYQEVMQGNYGILVSLGYPIPKPDLIFRLEQGEEPWVPDSPHPEEGDIVTGVY
B10: DOMAIN_9993 (protein, listed as Rattus norvegicus)
chain: DVVTYEDVHVNFTQEEWALLDPSQKRLYKVVMLETYKNLSAIGYIWEDHTIEQHFQSSRSHGRHKRHRTGEQPSELIQHGK
B11: DOMAIN_10763 (protein, listed as Mustela putorius)
chain: PKVPVSFEDVSVYFTKTEWKLLDVQQRILYKTVMLENYHHLVSLGCLSTKPHLVSWLEQGEGPWTTDIWRTPATAKTQTEG
B12: DOMAIN_9617 (protein, listed as Mesocricetus auratus)
chain: LQDSVTFKDVAVDFSQEEWERLNPAQRSLYRTVVLENYWNLVSVGACVSKSHLISLLEHGKAPWDMRGEVTESTSQDGESV
B13: DOMAIN_8460 (protein, listed as Peromyscus maniculatus)
chain: MNAVTYDDVHVDFTWDEWALLDPSQKNLYKNVMLETYRNLTAIGYKWEEHNINEKFQRSRRNRRHERSHTGEKSYECNQCG
B14: DOMAIN_9858 (protein, listed as Mesocricetus auratus)
chain: MDAVTYDDVHINFTLEEWALLNPSQKSLYKDVMLDTYRNLTAIGYSWDDHNIEEICQSSRSHRRHLQRHAKINTGEKPYGS
B15: DOMAIN_9716 (protein, listed as Mus caroli)
chain: PKVTVSFEDVSVYFTKTEWKLLDLKQRNLYKQVMLENYSHLVSVGFAFSKPNLVSQLERGEKPWIRDDRMESAARSRAGNR
B16: DOMAIN_8712 (protein, listed as Mesocricetus auratus)
chain: PADRDAVTYDDVHIGFTQEEWVLLNPSQKSLYKDVMLDTYRNLTAIGYRWQDHNIEEHCENSRRHRRKFSCTTKPYESLQN
B17: DOMAIN_8862 (protein)
chain: TLGLLSFNDVSLEFSWEEWQLLDSAQRYLYREVILENYSNLLSVGYHGTKPDLIFRLEQGEEPWILNAKMSTQNCPEVWED
modifications: Marmota monax
B18: DOMAIN_9329 (protein, listed as Peromyscus maniculatus)
chain: NAVTYNDVHVDFTQEEWALMDPSQRNLYKDVMVETYMNLTAIGYNWEDLEVEEHCQNSLKHGRHKRPHTTEKSCEYMGCGK
B19: DOMAIN_8953 (protein, listed as Mus caroli)
chain: MNGMTYDDVHVNFTGEEWALLSPSQKRLYKDVMLETYRNLTAIGYSWEDRNIEEHFQRSRRHGRHERSHTGENPSVYTQCN
B20: DOMAIN_10573 (protein, listed as Cervus elaphus)
chain: SHTLVTFKDILVNFTREEWKLLDTAQQIMYKDVMLENYRNLVSLGHQLPKPDVILRLEKGEEPWLVEKEIHQETHPDLETP
B21: DOMAIN_8340 (protein, listed as Peromyscus maniculatus)
chain: EQDAVTYEDVHVNFTHEEWALLDPSQKSLYKDVMMETYWNLTCIGYKWEDHNIEEHCQSCRRNGSRCVICHSGHNPCEHKG
B22: DOMAIN_8742 (protein, listed as Peromyscus maniculatus)
chain: MGSVSFEDISLDFTWDEWQDLDSAQRTLYRDVMLENYSSLMFLGHCTTKPELIFKLEHGFGPWSLAEASIQSLPGVHKMTV
B23: DOMAIN_9706 (protein, listed as Octodon degus)
chain: SPVLVSFDDVFVSFTREEWQVLDNAQRALYGDVMLETYRSLVLLGQCITKPEVIFKLEQGVEPWTGGEPHNQSPPDVQEVD
B24: DOMAIN_10612 (protein)
chain: ALESVTFRDVAVFFSRDEWLHLNPAQRALYREVMLDNYSALLSLGILFSKPKVILQLEQGEDPWMVENGVSQSACLGWESL
modifications: Vicugna pacos
B25: DOMAIN_10359 (protein)
chain: AQGLMAFEDVAVYFSREEWGLLDAAQRALYRRVMLENFTLLASLGLSVSRPHVVIQLECGKEPWVLNGTDVTLARNAQRRP
modifications: Delphinapterus leucas
B26: DOMAIN_8317 (protein, listed as Mus caroli)
chain: CQALVTFEDVAVTFTDDEWKRLVPVQRALYKAVMLENYESIISLGLPVPRPDLILQFKRRGEPWMRGFHGSEEKAWPESVS
B27: DOMAIN_9119 (protein, listed as Mesocricetus auratus)
chain: FQNSLTFDDVAVDFTQEEWVLMDQTQRDLYREVMLENYQNLFSAGCEITKPSLISWLEEDLQIGQREDFQEWEMQDTLREQ
B28: DOMAIN_10057 (protein, listed as Mus musculus)
chain: MDALTFDDVHVHFTREEWSLLDPSQKRLYKDVMLEIYKNLTAIGYKWKDHNVGEHSQNDRRYGRHERSPAGENHNEYTQCD
B29: DOMAIN_8982 (protein, listed as Mesocricetus auratus)
chain: MGAVTYDDVHINFTQEEWALLNPSQKRLYKDVMHDTYSNLTATGYSLEDHYIEEHCQSSRRCRRHLQRHKKVHIGEKPYES
B30: DOMAIN_8618 (protein, listed as Mesocricetus auratus)
chain: MESVSFEDVAVNFTPEEWALLNSSQKRLHRDVMQENFRNLAAIAKNQEDPTLEDDYEYLRKILPFAVQTGYRLCENQDYAE
B31: DOMAIN_8555 (protein, listed as Cricetulus griseus)
chain: MAFEDVAVYFSQEEWVFLDAAQRALYRHVMLENFALVDSIGLSISRPRVIIQLQRGEEPWVPNRTNTGPGRGTRRRPSLGS
B32: DOMAIN_9217 (protein, listed as Mesocricetus auratus)
chain: MAFEDVAVYFSQEEWMFLDAAQRALYRHVMLENFALVDSIGLSVSRPRVIIQLQRGEEPWVPNRTNPGPGRSTCRRPSLGS
B33: DOMAIN_8881 (protein, listed as Cricetulus griseus)
chain: MAFEDVAVYFSQEEWVFLDAAQRALYRHVMLENFALVDSIGLSISRPRVIIQLQRGEEPWVSNRTNTGPGRGTRRRPSLGS
B34: DOMAIN_8424 (protein, listed as Peromyscus maniculatus)
chain: MDAVTYEDVQVSFTREEWTLLDPSQKSLYKDVMVETYRNLTAIGYKWEDQNIKKHHQCSRRHGRHERSNSAEKDYECEQCG
B35: DOMAIN_8492 (protein, listed as Mus musculus)
chain: RERLVSFEDVTVDFSQEEWRRLDSVQRHLYQDVMLEIYSHLLAVGYPVPSPGAIFRIKKRKEARTGEAKLPHPCWCQEVES
B36: DOMAIN_10241 (protein, listed as Octodon degus)
chain: PTAPVAFSDLTICFSQEEWGWLSPTQKLLYEEVMLENYQNLVSVGLCTRKPHIITLLEKGKDPWIAEPLRKRGGPDPASRY
B37: DOMAIN_9141 (protein, listed as Mus caroli)
chain: LNSAVTYDDVNVNFTREEWALLDSSQKSLYKDVMLETYRNLTAIGYNWEGHNIEEHCQSSRRHARTHKRTHTGEKSYECDQ
B38: DOMAIN_9489 (protein, listed as Dipodomys ordii)
chain: LASISFEDLAVTFTEEEWEHLDLGQRNLYQEVMLETYQLLVSLGDQVRLAPPTPGTPLPALPAQPRLLGLPSQPLDRRGTP

test system: HBEGF locus; assay type: cell-based, human; conditions: high-throughput screen of dXR repression of the HBEGF gene; change in abundance of each domain in the library before and after diphtheria toxin selection

Molecule	Log2 (fold change)
B1	3.4751
B2	2.8257

same assay, conditions: repressor domain in dXR, repression of the HBEGF gene; abundance of domain in library after vs before diphtheria toxin selection

Molecule	Log2 (fold change)
B3	3.317
B4	3.1044
B5	2.8391
B6	3.327
B7	2.5344
B8	3.9002
B9	2.8442
B10	2.7601
B11	2.5924
B12	2.4034
B13	3.1352
B14	3.0047
B15	2.9009
B16	2.7776
B17	2.3521
B18	4.263
B19	2.5941
B20	2.4077

Molecule	Log2 (fold change)
B21	2.2764
B22	2.3354
B23	2.821
B24	2.4997
B25	2.9199
B26	3.3091
B27	2.2985
B28	2.2961
B29	3.1585
B30	2.6363
B31	3.2852
B32	3.8919
B33	3.743
B34	2.7945
B35	3.3107
B36	3.5766
B37	3.035
B38	3.0215
